Results taken from the nanobody polyreactivity screen of Harvey et al. (2022).

Test: yeast display, Sf9 membrane polyspecificity reagent, FACS + sequencing; frameworks hold sequencing errors
Outline: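 Nanobodies from a synthetic yeast display library (Saccharomyces cerevisiae BJ5465), induced 36–48 hours with galactose, were stained 1 hour at 4 °C with 10% biotinylated, detergent-solubilized Sf9 membrane reagent, enriched on streptavidin microbeads, then FACS-sorted. Anti-HA (expression) and streptavidin (reagent binding) fluorescence set low and high (top ~1%) gates. Polyreactivity labels come from the gate of origin. Genes were colony-PCR amplified, MiSeq 2 × 250 sequenced and filtered by CDR length.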

Sequence | polyreactivity (PSR sort gate)
QVQLVESGGGLVQAGGSLRLSCAATGFTFTGNAMGWYRQAPGKQRELVAAINTGTGGSTYYADSVKGRFTISRDNAKNTVYLQMNSLKPVDTAVYYPIGVGGDYDYWGQGTQVTVSS | low polyreactivity
QVQLVESGGGLVQAGGSLRLSCAATGFTFTLYAMGWYRQAPGKERALVAAITRLGTSTYYADSVKGRFTISRDNAKNTVYLQMNNLKPEDTAVYYCAARGGGGQRYDYWGHGTQVTVSS | high polyreactivity
QVQLVESGGGLVQAGGSLRLSCAATGFTFYGYAMGWYRQAPGKERELVAAISRRSSSTYYADSVKGRFTISRDNAKNTVYLQMNSLKPEDTAVCYCNTVFQRSGYAAGVDYWGQGTQVTVSS | high polyreactivity
QVQLVESGGGLVQAGGSLRLSCAATGFTSYLYTMGGYRQAAGKERELVAAISNSGGNTYYADSVKGRFTISRDNANNTVYLQMNSLKPEDTAVYYCAARLFAAKYRYGYWGQGTQVTVSS | high polyreactivity
QVQLVESGGGLVQAGGSLRLSCAATGIISQYYAMGWYRQQPGKESELDAAISRSGGSTFYADSVKGRFTISRDNAQNTVYLQMNSLKPEDTAVYYCNAESRFRPYTSRYDYWGQGTQVTVSS | high polyreactivity
QVQLVESGGGLVQAGGSLRLSCAATGIKFDGYAMGWYRQEPRKERELVAGITIGDITYYADSVKGRFTISRDNAKNTVYLQMNSLKPEDTAVYYCADDCYYYQTAYDYWGQGTQVTVSS | low polyreactivity
QVQLVESGGGLVQAGGSLRLSCAATGINITSNTMGWYRLAPGKEREFVASINWNGSSTYADSVKGRFTISRDNAKNTVYLQMNSLKPEDTAVYYCNADYNRNSVQFSLYDYWGQGTQVTVSS | low polyreactivity
QVQLVESGGGLVQAGGSLRLSCAATGITFVYNAMGWYRQAPGKERELVAAISWSGTSTYYADSVKGRFTISRDNAKNTVYLQMNSLKPEDTAVYDCSAQSGYPPYGYYYWGQGTQVTVSS | low polyreactivity
QVQLVESGGGLVQAGGSLRLSCAATGITFYPNGMGWYRPAPGKEREFVAAITSSGGSTYYADSVKGRFTISRDNAKNSVYLQMNSLKPEDTAVYYCAAQYYPISYYGYGYWGQGTQVTVSS | low polyreactivity
QVQLVESGGGLVQAGGSLRLSCAATGLTFSTNTMGWYRQAPGKEREFVAAITARGGRTYYADSVKGRFTISRDNAKNTVYLQMNCLKPEDTAVYYCAANAYTYYARIGFDYWGQGTQVTVSS | high polyreactivity
QVQLVESGGGLVQAGGSLRLSCAATGRIFIAYAMGWYRQAPGKEREFVAAISSGGGSTYYADSVKGRFTISRDNAKNTVYLQMNSLKPEDTAVYYCGAWTLYWSHTTWSYDYWGQGTQGTVSS | low polyreactivity
QVQLVESGGGLVQAGGSLRLSCAATGRIFKTYAMGWYRQAPGKERELVAAISWTVVSTHYADSVKGRFTISRDNAKNTVYLQMNSLKPEDTAVYYCNADTPLRHRTWNRKVTDFEYDYWGQGTQVTVSS | low polyreactivity
QVQLVESGGGLVQAGGSLRLSCAATGRIFRVYAMGWYRQAPGKVRELVAAISSGGSTNYADSVKGGFTISRDNAKNTVYLQMKSLKPEDTAVYYCAADYWYRLFWYYGAPLDYWGQGTQVTVSS | low polyreactivity
QVQLVESGGGLVQAGGSLRLSCAATGRIFTYYAMGWYRQAPGKERELVAGISGSGTSTYYADSVKARFTISRDNAKNTVDLQINSLKPEDTAVYYSAADVFRDDVWLDYWGQGTQVTVSS | low polyreactivity
QVQLVESGGGLVQAGGSLRLSCAATGRIFYSNAMGWYRQAPGKERELVAVIRRTGSTYYADSVKGRFTISRDNAKHTVYLQMNSLKPEDTAVYYCATRIPYGRGGNRYDYWGQGTQVTVSS | low polyreactivity
QVQLVESGGGLVQAGGSLRLSCAATGRPSTSMLWDGIDRRLGKKGSSLTYYADSVKGRFTISRDNAKNTVYLQMNCLKPEDTAVYYCNKRRRWDNYGYRYGYWGQGTQVTVSS | low polyreactivity
QVQLVESGGGLVQAGGSLRLSCAATGRSFVHKAMGWYRQAPGKERELVAAISRGGSTYYADSVKGRFTISRDNAKNTVYLQMNSMKPEDTAVYYCAKERRYTGRRSYEFNYWGQGTHVTVSS | low polyreactivity
QVQLVESGGGLVQAGGSLRLSCAATGRSFVLNAMGWYRQAAGKERELVATINYSGSSTYYADSVKGRFTISRDNAKNTVYLQMNSLKPEDTAVYYCNRDVPYRLVYYANYYWGHGTQVTVSS | low polyreactivity
QVQLVESGGGLVQAGGSLRLSCAATGRTFYVNAMGWYRQAPGLEREFVARITSGGSTYYADSVKGRFTISPDKAKNTVYVQKNSLKPEDTAVYYCAADYVSLSVFSYCAWYDYWGQGTQVTVSS | low polyreactivity
QVQLVESGGGLVQAGGSLRLSCAATGRTFYWNAMGWYRQAPGKERELVAAIDSSGGSTYYADSVKGRFTISRDNAKNTVYLQMNSLKPEDTAVYYCNKDYPTYDYDYWGQGTQVTVSS | low polyreactivity
QVQLVESGGGLVQAGGSLRLSCAATGSIFQSYAMGWYRQAPGKERELVAAITARGTSTYYADSVKGRFTISRDNAKNTVYLQMNSLKPEETAVYYCNTDRSRSPGDVESPSDIKRDYWGQGTQVTVSS | low polyreactivity
QVQLVESGGGLVQAGGSLRLSCAATGSIFRRYAMGWYGQAPGKERELVAAISWSGGSTYYADSVKGRFTISRDNAKNTVYLQMNSLKPEDTAVYYCAARHRQQKLDYWGQGTQVTVSS | high polyreactivity

Sequence | polyreactivity (PSR sort gate)
QVQLVESGGGLVQAGGSLRLSCAATGSIFYFNAMGWYRKAPGKERELVADISGSGGSTYYADSVKGRFTISRDNAKNTVYLQMNSLKPEDTAVYYCAARLYLHSWWYYAYDYWGQGTQVTVSS | high polyreactivity
QVQLVESGGGLVQAGGSLRLSCAATGSIIVYNTMGWYRQAPGKERELVAAITVRDDSTYYADSVKGRFTISRDNAKNTVYLQMNSLKPEDTAVYYCNARGNFLIGRDYWGQGTQVTVSS | low polyreactivity
QVQLVESGGGLVQAGGSLRLSCAATGSIYSYAMGWNRQAPGKERELVAAISRSGGRTYYADSVKGRFTISRDNAKNTVYLQMNSLKPEDTAVYYCAADGYSAKYYPGGDYWGQGTQVTVSS | high polyreactivity
QVQLVESGGGLVQAGGSLRLSCAATGSTFYQYALGWYRQAPGKERELVAAISSRGTSTYYADSVKGRFTISRDNAKNTVYLQMNSLKPEDTAVYYCATEYTNWHRTWSLQTGGYGYWGQGTQGTVSS | high polyreactivity
QVQLVESGGGLVQAGGSLRLSCAATRRIFRRNPMGWYIQAPGKERELVATISANGGSTYYADSVKGRFTISRDNAKNTVYLQMNSLKPEATAVYYCAAQGWSWYWYQKIYYWGQGTQVTVSS | high polyreactivity
QVQLVESGGGLVQAGGSLRLSCAATRSTSSKYAMGWYRQAPGKERELVAAITRSGGRTYYAVSVMGRFTISRDYAKNTVYLQMNSLKPEDTAVYYCAAAGVYWEFDYWGQGTQVTVSS | high polyreactivity
QVQLVESGGGLVQAGGSLRLSCAAYGFIFKKYAMGWYRQAPGKERELVAAISGSSTRTYYADSVKGRFTISRDNAKKTVYLQMHSLKPEDTAVYYCVGRFYERDYWGQGTQVTVSS | high polyreactivity
QVQLVESGGGLVQAGGSLRLSCAAYGFTCPLNAMGWYRQAPGKERELVAAISGSSGSTYYADSVKGRFTISRDNAKNTVYLQMNSLKPEDTAVYYCAKKYAWRYYYWGQGTQVTVSS | high polyreactivity
QVQLVESGGGLVQAGGSLRLSCAAYGFTFGVYALGWYRQAPGKERELVAAISRIGGRTYYADSLKGRYTISRDNAKNTVYVQMNSLKPEDTAVYYCAESPRQGMYYWGQGTQVTVSS | high polyreactivity
QVQLVESGGGLVQAGGSLRLSCAAYGIIFTWYVMGWYRQAPGKERELVAAISASGASTYYADSVKGRFTISRDNAKNTVYLQMNSLKPEDTAVYYCAARYGWYPVRQPRPGGDYWGQGTQVTVSS | high polyreactivity
QVQLVESGGGLVQAGGSLRLSCAAYGRIFAYYAMGWYRQAPGKERELVAAISSGGTTNYADSVKGRFTISRDNAKNTVYLQMNSLKPEDTAVYYCNADGWRRSRQYYYWGQGTQVTVSS | low polyreactivity
QVQLVESGGGLVQAGGSLRLSCAAYGRIFGVYAMGWYRPAPGKERELVAAIERRGGTTYYADSVKGRITISRDMAKNTVYLQLNSLKPEDTAVYYCATGSIAAGHYAYNYWGQGTQVTVSS | high polyreactivity
QVQLVESGGGLVQAGGSLRLSCAAYGRIFLLYAMGWYRQAPGKERELVAGISIGGSTNYADSVKGRFTISRDNAKNTVYVQMNSLKPEDTAVYYCNAKRYFASRKNGYYYWGQGTQVTVSS | high polyreactivity
QVQLVESGGGLVQAGGSLRLSCAAYGRIFTINAMGWYRQAPGKERELVASIRSTGGSTYYADSVKGRFTISRDNAKNTVYLQMNSLKPEDTAVYYCAADGGVAWGYGYWGQGTQVTVSS | low polyreactivity
QVQLVESGGGLVQAGGSLRLSCAAYGRIFYAYAMGWYRQAPGKERELVAAITNGGGTTYYADSVKGRFTISRDNAKNTVYLQMNSLKPEDTAVYYCNAVRYTIAHGFYYVPEDYWGQGTQVTVSS | low polyreactivity
QVQLVESGGGLVQAGGSLRLSCAAYGRIFYRNAMGWYRQAPGKERELVAAISRSGGSTYYADSVKGRFTISRDNAKNTVYLQMNSLNPEDTAVYYCNAYRYLQSGPPRYREHGSWGQGTQVTVSS | low polyreactivity
QVQLVESGGGLVQAGGSLRLSCAAYGRIFYYNRMGWYRQAPGKERELVADISFSDGSTYYADSVKGRFTISRDIAKNTVYLQMNSLKPEDTAVYYCAAVIGYDYDYWGQVTQVTVSS | low polyreactivity
QVQLVESGGGLVQAGGSLRLSCAAYGRIIYLNAMGWYRQAPGKERELVATISSSGGTTNYADSVKGRFTISRDNAKNTVYLQMNSLKPEDTAVYYCAAKFVGTTVSEYGYWGQGTQVTVSS | low polyreactivity
QVQLVESGGGLVQAGGSLRLSCAAYGRILSLYAMGWYRQAPGKERQLVAAIRWSGSRTYYADSVKGRFTISRDNAKNTVYLQMNSLKPEDTAVYYCAARDSTNLLSGYTHYYWGQGTQVTVSS | high polyreactivity
QVQLVESGGGLVQAGGSLRLSCAAYGRTFARYAMGWYRQAPGKERELVAAISKSGVSTYYADSVKGRFTISRDHAKNTLYLQMNSLKPEDTAVYYCAAYVRQLQVVRGVSNYDSWGQGTQVTVSS | high polyreactivity
QVQLVESGGGLVQAGGSLRLSCAAYGRTFDTYAMGGYRQAPGKERELVAAITKGGGSTYYADSVKGRFTISRDNAKNTVYLQMNSLKPEDTAVYYCNDRVHGEYFHGIRYYYWGQGTQVTVSS | low polyreactivity
